From patent US20060239968A1 (University of Texas, published 2006)
Positions of bridges follow the written chain, without caps; N, C: chain ends. Non-standard residues stand in square brackets, D forms with d. No end group written: not given here.

Experiments:
[1] = target: vascular endothelial growth factor receptor-1 (VEGFR1), recombinant (UniProt P17948 27-756, limits assumed); experiment: in vitro ligand-receptor binding assay, phage on recombinant receptor
Procedure: (§1) Recombinant IL-11Rα, vascular endothelial growth factor receptor-1 (VEGFR1) or leptin receptor (OB-R) were incubated with phage displaying the […] (SEQ ID NO:37) peptide. VEGFR1 was used as a representative vascular receptor, while OB-R was used because it shares a co-receptor with IL-11Rα. An unrelated phage clone displaying the peptide […] (SEQ ID NO:38) and insertless fd-tet phage were used as controls. […] Binding of […] (SEQ ID NO:37)-phage to IL-11Rα was specific, since it was inhibited by the native IL-11 ligand in a concentration-dependent manner (not shown). […] These observations with normal prostate tissues were followed by an examination of the expression of IL-11Rα in tumors, as discussed in the present Example.

[2] = target: T1, leptin receptor (OB-R), recombinant (UniProt P48357 22-839, limits assumed); experiment: as above
T1 sequence (looked up): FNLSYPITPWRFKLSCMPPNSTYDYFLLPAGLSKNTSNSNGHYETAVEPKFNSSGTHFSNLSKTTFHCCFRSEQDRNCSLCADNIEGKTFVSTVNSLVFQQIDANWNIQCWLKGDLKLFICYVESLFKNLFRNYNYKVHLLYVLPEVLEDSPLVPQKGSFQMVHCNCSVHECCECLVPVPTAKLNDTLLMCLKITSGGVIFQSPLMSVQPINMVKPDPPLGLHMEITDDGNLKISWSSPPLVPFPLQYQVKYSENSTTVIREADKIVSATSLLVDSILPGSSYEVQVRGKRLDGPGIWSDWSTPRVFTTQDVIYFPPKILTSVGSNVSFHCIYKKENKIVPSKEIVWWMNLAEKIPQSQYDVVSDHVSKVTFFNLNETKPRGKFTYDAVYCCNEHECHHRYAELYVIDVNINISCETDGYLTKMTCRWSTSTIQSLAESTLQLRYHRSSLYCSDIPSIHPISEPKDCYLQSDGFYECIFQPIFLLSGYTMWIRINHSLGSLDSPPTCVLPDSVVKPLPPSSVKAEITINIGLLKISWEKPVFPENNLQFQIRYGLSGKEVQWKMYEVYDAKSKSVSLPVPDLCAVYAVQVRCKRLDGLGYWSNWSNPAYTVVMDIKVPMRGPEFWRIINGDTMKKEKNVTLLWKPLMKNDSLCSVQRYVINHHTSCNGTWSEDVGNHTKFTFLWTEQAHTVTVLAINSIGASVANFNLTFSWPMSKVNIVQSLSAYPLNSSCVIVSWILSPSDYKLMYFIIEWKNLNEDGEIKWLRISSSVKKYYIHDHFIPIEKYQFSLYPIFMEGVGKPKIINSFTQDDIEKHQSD
Procedure: as §1

[3] = target: T2, prohibitin (B cell receptor associated protein) (mouse); experiment: immunoprecipitation from mouse adipose tissue extract, SDS-PAGE
T2 sequence (P67778 2-272, looked up): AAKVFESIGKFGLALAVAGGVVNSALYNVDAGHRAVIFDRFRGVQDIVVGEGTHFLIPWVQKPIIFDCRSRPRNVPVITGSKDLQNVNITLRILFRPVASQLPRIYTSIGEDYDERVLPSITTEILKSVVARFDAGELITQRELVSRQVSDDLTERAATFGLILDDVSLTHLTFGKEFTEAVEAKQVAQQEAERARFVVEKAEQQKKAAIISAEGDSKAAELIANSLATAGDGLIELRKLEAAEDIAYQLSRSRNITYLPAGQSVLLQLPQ

[4] = target: T3, Recombinant IL-11Rα (IL-11 receptor alpha) (UniProt Q14626 23-370, limits assumed); experiment: in vitro ligand-receptor binding assay, phage on recombinant receptor
T3 construct: also called immobilized IL-11Rα
T3 sequence (looked up): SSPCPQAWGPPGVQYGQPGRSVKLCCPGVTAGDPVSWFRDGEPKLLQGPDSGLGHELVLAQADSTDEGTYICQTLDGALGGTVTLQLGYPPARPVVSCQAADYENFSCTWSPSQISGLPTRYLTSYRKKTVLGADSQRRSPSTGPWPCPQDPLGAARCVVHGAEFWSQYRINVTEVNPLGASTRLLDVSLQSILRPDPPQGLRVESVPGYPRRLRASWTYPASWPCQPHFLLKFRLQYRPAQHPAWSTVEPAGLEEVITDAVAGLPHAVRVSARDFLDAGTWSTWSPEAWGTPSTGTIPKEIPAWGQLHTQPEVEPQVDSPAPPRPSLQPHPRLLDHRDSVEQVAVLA
Procedure: as §1

Chain of vascular endothelial growth factor receptor-1 (VEGFR1), recombinant (P17948 27-756 limits assumed): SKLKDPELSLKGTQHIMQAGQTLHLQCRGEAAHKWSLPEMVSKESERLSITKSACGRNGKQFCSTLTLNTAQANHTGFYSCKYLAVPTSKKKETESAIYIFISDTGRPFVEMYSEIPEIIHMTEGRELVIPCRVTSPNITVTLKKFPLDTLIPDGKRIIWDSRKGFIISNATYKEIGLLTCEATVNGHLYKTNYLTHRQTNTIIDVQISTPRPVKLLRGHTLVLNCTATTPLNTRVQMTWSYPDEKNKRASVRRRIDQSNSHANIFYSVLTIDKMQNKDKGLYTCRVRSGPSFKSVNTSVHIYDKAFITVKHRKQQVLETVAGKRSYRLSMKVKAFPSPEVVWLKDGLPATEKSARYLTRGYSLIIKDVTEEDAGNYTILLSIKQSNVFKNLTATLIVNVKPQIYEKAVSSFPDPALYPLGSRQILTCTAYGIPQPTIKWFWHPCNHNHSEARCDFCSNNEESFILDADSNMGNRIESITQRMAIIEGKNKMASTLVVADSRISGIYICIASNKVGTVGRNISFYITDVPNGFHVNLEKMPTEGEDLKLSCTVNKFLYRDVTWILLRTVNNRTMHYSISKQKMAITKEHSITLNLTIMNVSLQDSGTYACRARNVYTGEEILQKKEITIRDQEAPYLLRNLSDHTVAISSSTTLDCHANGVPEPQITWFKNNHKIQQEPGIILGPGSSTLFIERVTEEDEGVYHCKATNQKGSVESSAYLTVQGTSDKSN

B1: CGRRAGGSC (SEQ ID NO:37)-displaying phage (peptide)
peptide: CGRRAGGSC
modifications: not fully specified (bridges); cysteine pairing not given here; also: displayed on filamentous phage
notes: also called prostate-homing phage displaying an IL-11 peptide mimic
binding result [1]: no binding | binding result [2]: no binding

B2: … (SEQ ID NO:81) conjugated to (KLAKLAK)2 (SEQ ID NO:1) (peptide)
peptide: CKGGRAKDCGG[dK][dL][dA][dK][dL][dA][dK][dK][dL][dA][dK][dL][dA][dK]
modifications: disulfide 1-9 (inferred); not fully specified; also: order of the parts not given here explicitly
fold enrichment against the CARAC (SEQ ID NO:71) precipitated fraction [3]: > 10 fold

B3: unrelated phage clone displaying the peptide CRVDFSKGC (SEQ ID NO:38) (peptide)
peptide: CRVDFSKGC
notes: used as a control; also called control phage
binding result [4]: no binding
